Where two headings read alike, the source gives them in different places.
Columns and labels:
Assay in all cases: EMSA
Lsr2 [1] = biological target: T1, Lsr2 (Mycobacterium tuberculosis, UniProt P9WIP7 1-112)
Lsr2 [2] = biological target: T1, Lsr2; remark: listed apart in the source
Lsr2 [3] = biological target: T1, Lsr2; remark: listed apart in the source

B1: lmo promoter 104 bp (dsDNA)
DNA 1: TGCTGGTCAATTAGGCACTGCGTGACAATTTATCGAGTCGCACAACCGGATCATCCATCCGTTATTTACGTCAATTTAAACGGATGATCTATCCGCTGGCTCCC
DNA 2: GGGAGCCAGCGGATAGATCATCCGTTTAAATTGACGTAAATAACGGATGGATGATCCGGTTGTGCGACTCGATAAATTGTCACGCAGTGCCTAATTGACCAGCA
binding result (Lsr2 [1]): binds

B2: C42 (dsDNA)
DNA 1: AAAAATCTCTAAAAAATCTCTAAAAATCTCTAAAAAATCTCT
DNA 2: AGAGATTTTTTAGAGATTTTTAGAGATTTTTTAGAGATTTTT
binding result (Lsr2 [2]): binds

B3: lmo 26 bp fragment 2 (54% AT) (dsDNA)
DNA 1: AATTTATCGAGTCGCACAACCGGATC
DNA 2: GATCCGGTTGTGCGACTCGATAAATT
binding result (Lsr2 [3]): binds

B4: lmo 26 bp fragment 3 (65% AT) (dsDNA)
DNA 1: ATCCATCCGTTATTTACGTCAATTTA
DNA 2: TAAATTGACGTAAATAACGGATGGAT
binding result (Lsr2 [3]): binds

B5: lmo 26 bp fragment 1 (46% AT) (dsDNA)
DNA 1: TGCTGGTCAATTAGGCACTGCGTGAC
DNA 2: GTCACGCAGTGCCTAATTGACCAGCA
binding result (Lsr2 [3]): binds

From publication PMC2367712
